Measured values as given in the supplement of paper PMC12764529.
± gives the half width of the 95% confidence interval.

assay: folding stability dG unfold from trypsin proteolysis; higher = more stable
Outline: (§1)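 Digests were run with trypsin and chymotrypsin at 11 concentrations in threefold dilutions, plus a no-protease condition, on designed mini-proteins in a PA-tagged cDNA display construct. The mini-proteins were under 80 residues, had no cysteine, and were kept only when AlphaFold2 dimer inter-PAE was above 15. After sequencing, Bayesian fitting of the counts gave K50, from which unfolding free energy was derived against a sequence-predicted unfolded-state K50 and a shared folded-state K50, per protease or combined.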

Sequence	folding stability dG unfold [kcal/mol]
SAGSITIPIDDPEEMKDQLKNIAENFGMSNQDAEQFKDQLKENIEIHRDGDRWYITIQPPPPPDPGQPPSAG [r5_717_TrROS]	0.51 ± 0.15
SAGGGSLSDIATVDTSSYTDPNNPASVTVTNVTIPDGSTVTVTYNPTTGTVTVTTATDGTTTTTTIPSSAGG [r13_960_JUSTAS]	1.89 ± 0.19
SAGGMPKIVEIEILSEEYDPSTGVRTYTAKVTYPDGTEEVVTIPVDLTDGNATEEEVKKRVEELVLESAGGS [r16_221_JUSTAS]	3.95 ± 0.22
SPESIEVQISKSSSTSPSGGSEEIYTVTVTYPATGKTLTKNFTATLNPDGTTNPNGSPEELAAKLAAELLAS [r1_77_JUSTAS]	1.37 ± 0.079
SAGGSAGGSISQIKSKIKKILEEKGLKPTKIVIKKTEKLKNKIKVEVEVEIGKGPKISMIIEIESAGGSAGG [r6_841_JUSTAS]	3.89 ± 0.21
SAGGGMKISTVETKPESDGSIVITIKVYDANGNEIKTYTIPLKGLSNVTITIPVANNPIEVSIPATLSSAGG [r13_427_JUSTAS]	1.48 ± 0.037
SAGGSAGGSAGKKKKKKKKKPPVTLTVEIEIEINGKKYIAKKKVKLNKDGKLEVEVEIYPSAGGSAGGSAGG [r11_555_TrROS_Hall]	2.4 ± 0.37
SAGGSAGGSRLGLEEFERIAREIAEELGISDLVAEVEELEDDYALLTIYNPETGEKLEILVPGSAGGSAGGS [r12_1000_TrMRF]	1.13 ± 0.053
MMTKEEIEKLAEELAKELEKKGYKIVKVEIEEVKPGEVKIKVDGKEITITLKDGRKLRIKVEVKKLPKEELS [r1_31_TrROS_Hall]	1.97 ± 0.053
SAGVISPTDPTTTTTTEVRESEDGTTTTVSTVTYPGTGSTMTVTTTTTHDPSTGTSTVTSTTTTDPSASAGG [r19_342_JUSTAS]	1.57 ± 0.086
SAGGSAGGSAGSLLTETSESVINDTKITHVLEIDPSSGALRLILETKHPDPGIVTVELLPSAGGSAGGSAGG [r17_242_JUSTAS]	0.943 ± 0.023
SAGGSFGIEIEFHGNGFVIEMFNPETDTINTMRFKFDPDGQFTEMEMETIPIPPPPPPEKDENGKESAGGSA [r2_375_TrROS]	2.27 ± 0.16
SMLNPDDPSVPERLVLVIPVPEEAVENGDFEVVRAKVEEAAEELEPLGWRVVSVEFDTETKEARLVLERPSA [r9_75_TrMRF]	3.76 ± 0.07
SAKKIPLDDAKIRIKMESPNGMIMEFPIKNVQIDPKNGKLSFEFPMRIYNPDNGKERPMRMKIDEIVPVSAG [r14_825_TrROS]	0.107 ± 0.37
SAGGSAGGSGSTVVEVEFPDARIVITVEPPGVLTVTVERPPFPVETVRLPDMTVEEAVAYALASAGGSAGGS [r20_8_JUSTAS]	1.76 ± 0.053
SAGGSAGGSMKIPSDYTLTPIETKDNGASTVTLEKVTYPGPSLLATFLTPPDGTVTLLEVKPVSAGGSAGGS [r20_103_JUSTAS]	0.525 ± 0.046
SAGGSAGGGPPLPPPVLVLPARVERVFYDPVTGELTVETVDFPVVIRPDGSVYLGDRWIPPELLSAGGSAGG [r6_514_TrMRF]	1.23 ± 0.046
SEVKLEVEEEEDGTLRVRLEVKLTREDGREVTRELELELTIELPPVEFETEEERRAALERLLEELEKLLESA [r9_790_TrROS_Hall]	3.18 ± 0.075
SAGGSAGGSAGPNNMYPYEITIEVRDDGKPVKIKIEMYMSPNGEPMPPEQIKNFAKELAKSAGGSAGGSAGG [r17_373_TrROS]	0.382 ± 0.24
SAGGSAGGSAGGSLEAIRKAIEEAQKNGHTVPISVRHPNGKDFTFEIEIQVVKPPPDEKSAGGSAGGSAGGS [r10_573_TrROS]	1.28 ± 0.043
SAGGSAKRYFIMIDIRYPGDGKEIYPLVIPIPPGEPISIEDILDEIGFPPENADNVDIEIHTFRAKSAGGSA [r15_665_TrROS]	1.56 ± 0.078

assay: folding stability dG unfold (combined trypsin and chymotrypsin); higher = more stable
Outline: as §1

Sequence	folding stability dG unfold [kcal/mol]
MVAVFEFTFKSEEELLEAAEEVARRLAAELGLPEEELEKIPIEVEVEEIGNEDGEKEYKLTIRFGFPEEFLS [r1_81_TrMRF]	3.83 ± 0.13
SAGGSAGGSKIEIHVQVSPELSPEEALERIRREIEEALPEELKDISLDDIIITVYPSHPDVPLSAGGSAGGS [r12_384_TrMRF]	0.643 ± 0.099
NKRIKIFIGGDDPSMAEQIQQWLQDNGYNVEVHVFTSPEDMKKAREWAEQNDIVIVIQVPPPPPKDPGDNNS [r1_497_TrROS]	3.3 ± 0.074
SAGGSPNIKITSKEKEGSKLKYTIQTPDKTITIEYSEGKATFKFPDGSTKTLTGKGSLEKAIKEAVLSSAGG [r13_98_JUSTAS]	1.59 ± 0.2
SAGGSAGGSAMSPTEAERARPVPVVKTETTVTLDPSGYRVETVTYDGGVTETVVTPLPPELASAGGSAGGSA [r18_192_JUSTAS]	0.0301 ± 0.085
SAGGMPVTLEIVLPNLHDVLGPEFFDALKNITVPNGTPIKKITVKPIGDKTVILIEVDSPEDAKDILGSAGG [r13_269_TrMRF]	1.58 ± 0.15
SAGGSAGGSAGGGRMLLTETETIFSPSGGESVVTRLVTVFRPPPPVFLPDPEGRWSELVSAGGSAGGSAGGS [r10_330_JUSTAS]	0.856 ± 0.22
SMTLVLDVSPDKAYKFKIEYKTPDGKRLTVDADTTMEPDGTARVPLKIPDSSVPPGTPLEIEKVEVTPLLSA [r9_359_JUSTAS]	0.436 ± 0.066
SAGGSADPGKPIQIAIMIHIDPEPGRIEIPIYIMDDNRVRPVSIEFTPAGTLKIEVGNKEIEIPIKSAGGSA [r15_507_TrROS]	2.24 ± 0.16
SAGGKVVVLTFPKDNPEEVREALAKLPNVVRVEVEKVNDRYLAVAELEGELAVFVSLPDGRYVLLVLGSAGG [r13_907_TrMRF]	2.73 ± 0.043
SAGGKKPKVKKVKVKLTLVDPETGEEVEVEAELYELPDGYVVLTVRNKKTGKTYRFVFKDGKLYLEPVSAGG [r13_117_TrROS_Hall]	4.12 ± 0.35
SAGGLIEKLKELGFEIVSVEEREETLPNGKKVRTVKITVKLPNGELVKIEVRVLPNGEVIIKIEVKKPSAGG [r13_818_TrROS_Hall]	3.55 ± 0.27
SAGGAPVSVSTSTLPDGRTVTTTTYPSGSTTTTITDPVTGATATASSPGSGTTTFTDPATGATTVVGSAGGS [r16_91_JUSTAS]	1.02 ± 0.065
SAGGSAGGSAGGKIYYLDKDLFVIDLPDPKTGKPIKIAIGGDPNRPDEILKLAKELAESSAGGSAGGSAGGS [r10_379_TrMRF]	-0.0301 ± 0.2
SAGGSAGGPNWVKFPIMFEMPIPVVPKMEKDPDGENRMEPVKPVRISIMIELTLPPDDLEDLIKSAGGSAGG [r6_120_TrROS]	1.83 ± 0.18
SAGGSAGGSGSSTEVTTTTLPDTSYTTTNSTTTTFSPDQPEAVEAGLPVPSTVTTTTTTSPAGSAGGSAGGS [r20_138_JUSTAS]	0.59 ± 0.12
SAGGSAGGSAGPTLTLELLFRNEDGSLYAVRVRYDLDTDKVEIEVRRLPPAEPVTVTVEDSAGGSAGGSAGG [r11_657_TrROS_Hall]	3.7 ± 0.17
SQTIRLELKNPDGRKIRIEIPVQRNPGNGYYYVSVKIEYYDPNGKPKERPITAPFNSPEDAEDQAREALRSA [r9_337_TrROS]	1.69 ± 0.28
SAGGSAGGRIPLEDIEIVEVSEETLPNTEKVYHVLVKLPEGYIEATFLPNTGLEEAVERLLALESAGGSAGG [r6_232_TrMRF]	0.788 ± 0.067
SAGGIRIRFWVPSPEEAREMAETIAKWLMEEHPGAKIKIEPKKVEPNPDNGYYRVEVPIKIVLPGQPISAGG [r13_585_TrROS]	1.7 ± 0.042
SAGGAFIKDFDVEEDPNGHRKFKFELPNGWKYDITIHPDFPQIEIKPIKPIEPPPIPADDPEQAEEQSAGGS [r16_482_TrROS]	0.552 ± 0.37

Sequence	folding stability dG unfold [kcal/mol]
SAGSITIPIDDPEEMKDQLKNIAENFGMSNQDAEQFKDQLKENIEIHRDGDRWYITIQPPPPPDPGQPPSAG [r5_717_TrROS]	-0.121 ± 0.47
SAGGGSLSDIATVDTSSYTDPNNPASVTVTNVTIPDGSTVTVTYNPTTGTVTVTTATDGTTTTTTIPSSAGG [r13_960_JUSTAS]	1.42 ± 0.15
SAGGMPKIVEIEILSEEYDPSTGVRTYTAKVTYPDGTEEVVTIPVDLTDGNATEEEVKKRVEELVLESAGGS [r16_221_JUSTAS]	3.76 ± 0.13
SPESIEVQISKSSSTSPSGGSEEIYTVTVTYPATGKTLTKNFTATLNPDGTTNPNGSPEELAAKLAAELLAS [r1_77_JUSTAS]	2 ± 0.1
SAGGSAGGSISQIKSKIKKILEEKGLKPTKIVIKKTEKLKNKIKVEVEVEIGKGPKISMIIEIESAGGSAGG [r6_841_JUSTAS]	3.19 ± 0.22
SAGGGMKISTVETKPESDGSIVITIKVYDANGNEIKTYTIPLKGLSNVTITIPVANNPIEVSIPATLSSAGG [r13_427_JUSTAS]	1.84 ± 0.13
SAGGSAGGSAGKKKKKKKKKPPVTLTVEIEIEINGKKYIAKKKVKLNKDGKLEVEVEIYPSAGGSAGGSAGG [r11_555_TrROS_Hall]	3.13 ± 0.41
SAGGSAGGSRLGLEEFERIAREIAEELGISDLVAEVEELEDDYALLTIYNPETGEKLEILVPGSAGGSAGGS [r12_1000_TrMRF]	1.07 ± 0.09
MMTKEEIEKLAEELAKELEKKGYKIVKVEIEEVKPGEVKIKVDGKEITITLKDGRKLRIKVEVKKLPKEELS [r1_31_TrROS_Hall]	3.04 ± 0.11
SAGVISPTDPTTTTTTEVRESEDGTTTTVSTVTYPGTGSTMTVTTTTTHDPSTGTSTVTSTTTTDPSASAGG [r19_342_JUSTAS]	1.08 ± 0.059
SAGGSAGGSAGSLLTETSESVINDTKITHVLEIDPSSGALRLILETKHPDPGIVTVELLPSAGGSAGGSAGG [r17_242_JUSTAS]	0.885 ± 0.072
SAGGSFGIEIEFHGNGFVIEMFNPETDTINTMRFKFDPDGQFTEMEMETIPIPPPPPPEKDENGKESAGGSA [r2_375_TrROS]	2.94 ± 0.19
SMLNPDDPSVPERLVLVIPVPEEAVENGDFEVVRAKVEEAAEELEPLGWRVVSVEFDTETKEARLVLERPSA [r9_75_TrMRF]	3.617 ± 0.032
SAKKIPLDDAKIRIKMESPNGMIMEFPIKNVQIDPKNGKLSFEFPMRIYNPDNGKERPMRMKIDEIVPVSAG [r14_825_TrROS]	0.22 ± 0.19
SAGGSAGGSGSTVVEVEFPDARIVITVEPPGVLTVTVERPPFPVETVRLPDMTVEEAVAYALASAGGSAGGS [r20_8_JUSTAS]	1.48 ± 0.074
SAGGSAGGSMKIPSDYTLTPIETKDNGASTVTLEKVTYPGPSLLATFLTPPDGTVTLLEVKPVSAGGSAGGS [r20_103_JUSTAS]	0.997 ± 0.065
SAGGSAGGGPPLPPPVLVLPARVERVFYDPVTGELTVETVDFPVVIRPDGSVYLGDRWIPPELLSAGGSAGG [r6_514_TrMRF]	1.61 ± 0.2
SEVKLEVEEEEDGTLRVRLEVKLTREDGREVTRELELELTIELPPVEFETEEERRAALERLLEELEKLLESA [r9_790_TrROS_Hall]	3.52 ± 0.13
SAGGSAGGSAGPNNMYPYEITIEVRDDGKPVKIKIEMYMSPNGEPMPPEQIKNFAKELAKSAGGSAGGSAGG [r17_373_TrROS]	0.398 ± 0.23
SAGGSAGGSAGGSLEAIRKAIEEAQKNGHTVPISVRHPNGKDFTFEIEIQVVKPPPDEKSAGGSAGGSAGGS [r10_573_TrROS]	1.46 ± 0.13
SAGGSAKRYFIMIDIRYPGDGKEIYPLVIPIPPGEPISIEDILDEIGFPPENADNVDIEIHTFRAKSAGGSA [r15_665_TrROS]	1.51 ± 0.22
